Test results published in the RNAGym collection of RNA variant scans (doi:10.1101/gr.219683.116).

B1: mRNA-splicing (parent)
chain: AGUUGCUGCUGGGAGCUCCAGCACAGUGAAAUGGACAGAAGGGCAGAGCAA

Variants of: B1
Assay: exon inclusion enrichment index; higher = more inclusion; WT1 exon 5 minigene, HEK293

Variant	exon inclusion enrichment index
G5A C6U U7A G8U C9A A20C	0.047
G5A C6U U7A G8U C9A A20C G21A	0.0479
G5A C6U U7A G8U C9A A20C G21C	0.0139
G5A C6U U7A G8U C9A A20C G21U	0.0238
G5A C6U U7A G8U C9A A20G	0.102
G5A C6U U7A G8U C9A A20G G21A	0.112
G5A C6U U7A G8U C9A A20G G21C	0.11
G5A C6U U7A G8U C9A A20G G21U	0.0713
G5A C6U U7A G8U C9A A20U	0.0779
G5A C6U U7A G8U C9A A20U G21A	0.0106
G5A C6U U7A G8U C9A A20U G21C	0.0614
G5A C6U U7A G8U C9A A20U G21U	0.0251
G5A C6U U7A G8U C9A A23C	0.0335
G5A C6U U7A G8U C9A A23C C24A	0.0996
G5A C6U U7A G8U C9A A23C C24G	0.241
G5A C6U U7A G8U C9A A23C C24U	0.00662
G5A C6U U7A G8U C9A A23G	0.157
G5A C6U U7A G8U C9A A23G C24A	0.238
G5A C6U U7A G8U C9A A23G C24G	0.259
G5A C6U U7A G8U C9A A23G C24U	0.0127
G5A C6U U7A G8U C9A A23U	0.0353
G5A C6U U7A G8U C9A A23U C24A	0.0228
G5A C6U U7A G8U C9A A23U C24G	0.128
G5A C6U U7A G8U C9A A23U C24U	0.000794

Variant	exon inclusion enrichment index
G5A C6U U7A G8U C9A A25C	0.501
G5A C6U U7A G8U C9A A25C G26A	0.223
G5A C6U U7A G8U C9A A25C G26C	0.0828
G5A C6U U7A G8U C9A A25C G26U	0.133
G5A C6U U7A G8U C9A A25G	0.293
G5A C6U U7A G8U C9A A25G G26A	0.36
G5A C6U U7A G8U C9A A25G G26C	0.493
G5A C6U U7A G8U C9A A25G G26U	0.231
G5A C6U U7A G8U C9A A25U	0.138
G5A C6U U7A G8U C9A A25U G26A	0.0732
G5A C6U U7A G8U C9A A25U G26C	0.157
G5A C6U U7A G8U C9A A25U G26U	0.0803
G5A C6U U7A G8U C9A A29C	0.0477
G5A C6U U7A G8U C9A A29C A30C	0.142
G5A C6U U7A G8U C9A A29C A30G	0.219
G5A C6U U7A G8U C9A A29C A30U	0.0308
G5A C6U U7A G8U C9A A29G	0.164
G5A C6U U7A G8U C9A A29G A30C	0.0104
G5A C6U U7A G8U C9A A29G A30G	0.0286
G5A C6U U7A G8U C9A A29G A30U	0.00704
G5A C6U U7A G8U C9A A29U	0.0147
G5A C6U U7A G8U C9A A29U A30C	0.0463
G5A C6U U7A G8U C9A A29U A30G	0.0618
G5A C6U U7A G8U C9A A29U A30U	0.00971

Variant	exon inclusion enrichment index
G5A C6U U7A G8U C9A A30C	0.0649
G5A C6U U7A G8U C9A A30C A31C	0.126
G5A C6U U7A G8U C9A A30C A31G	0.168
G5A C6U U7A G8U C9A A30C A31U	0.0899
G5A C6U U7A G8U C9A A30G	0.0451
G5A C6U U7A G8U C9A A30G A31C	0.00117
G5A C6U U7A G8U C9A A30G A31G	0.00768
G5A C6U U7A G8U C9A A30G A31U	0.0123
G5A C6U U7A G8U C9A A30U	0.0249
G5A C6U U7A G8U C9A A30U A31C	0.064
G5A C6U U7A G8U C9A A30U A31G	0.0609
G5A C6U U7A G8U C9A A30U A31U	0.0488
G5A C6U U7A G8U C9A A31C	0.077
G5A C6U U7A G8U C9A A31C U32A	0.0278
G5A C6U U7A G8U C9A A31C U32C	0.363
G5A C6U U7A G8U C9A A31C U32G	0.0628
G5A C6U U7A G8U C9A A31G	0.12
G5A C6U U7A G8U C9A A31G U32A	0.855
G5A C6U U7A G8U C9A A31G U32C	0.424
G5A C6U U7A G8U C9A A31G U32G	0.0411
G5A C6U U7A G8U C9A A31U	0.0565
G5A C6U U7A G8U C9A A31U U32A	0.0012
G5A C6U U7A G8U C9A A31U U32C	0.168
G5A C6U U7A G8U C9A A31U U32G	0.0286

Variant	exon inclusion enrichment index
G5A C6U U7A G8U C9A A35C	0.00811
G5A C6U U7A G8U C9A A35C C36A	0.0286
G5A C6U U7A G8U C9A A35C C36G	0.0383
G5A C6U U7A G8U C9A A35C C36U	0.00346
G5A C6U U7A G8U C9A A35G	0.017
G5A C6U U7A G8U C9A A35G C36A	0.0117
G5A C6U U7A G8U C9A A35G C36G	0.00488
G5A C6U U7A G8U C9A A35G C36U	0.00124
G5A C6U U7A G8U C9A A35U	0.00487
G5A C6U U7A G8U C9A A35U C36A	0.000817
G5A C6U U7A G8U C9A A35U C36G	0.00319
G5A C6U U7A G8U C9A A35U C36U	0.000729
G5A C6U U7A G8U C9A A37C	0.285
G5A C6U U7A G8U C9A A37C G38A	0.0896
G5A C6U U7A G8U C9A A37C G38C	0.0761
G5A C6U U7A G8U C9A A37C G38U	0.00922
G5A C6U U7A G8U C9A A37G	0.17
G5A C6U U7A G8U C9A A37G G38A	0.0869
G5A C6U U7A G8U C9A A37G G38C	0.113
G5A C6U U7A G8U C9A A37G G38U	0.0165
G5A C6U U7A G8U C9A A37U	0.0684
G5A C6U U7A G8U C9A A37U G38A	0.0163
G5A C6U U7A G8U C9A A37U G38C	0.0673
G5A C6U U7A G8U C9A A37U G38U	0.0205

Variant	exon inclusion enrichment index
G5A C6U U7A G8U C9A A39C	0.0192
G5A C6U U7A G8U C9A A39C A40C	0.204
G5A C6U U7A G8U C9A A39C A40G	0.0817
G5A C6U U7A G8U C9A A39C A40U	0.0208
G5A C6U U7A G8U C9A A39G	0.00842
G5A C6U U7A G8U C9A A39G A40C	0.102
G5A C6U U7A G8U C9A A39G A40G	0.00821
G5A C6U U7A G8U C9A A39G A40U	0.00682
G5A C6U U7A G8U C9A A39U	0.0074
G5A C6U U7A G8U C9A A39U A40C	0.142
G5A C6U U7A G8U C9A A39U A40G	0.0054
G5A C6U U7A G8U C9A A39U A40U	0.0161
G5A C6U U7A G8U C9A A40C	0.241
G5A C6U U7A G8U C9A A40C G41A	0.00954
G5A C6U U7A G8U C9A A40C G41C	0.455
G5A C6U U7A G8U C9A A40C G41U	0.0189
G5A C6U U7A G8U C9A A40G	0.0627
G5A C6U U7A G8U C9A A40G G41A	0.0181
G5A C6U U7A G8U C9A A40G G41C	0.455
G5A C6U U7A G8U C9A A40G G41U	0.0544
G5A C6U U7A G8U C9A A40U	0.0441
G5A C6U U7A G8U C9A A40U G41A	0.00198
G5A C6U U7A G8U C9A A40U G41C	0.359
G5A C6U U7A G8U C9A A40U G41U	0.0246

Variant	exon inclusion enrichment index
G5A C6U U7A G8U C9A A45C	0.106
G5A C6U U7A G8U C9A A45C G46A	0.0341
G5A C6U U7A G8U C9A A45C G46C	0.0306
G5A C6U U7A G8U C9A A45C G46U	0.0134
G5A C6U U7A G8U C9A A45G	0.212
G5A C6U U7A G8U C9A A45G G46A	0.447
G5A C6U U7A G8U C9A A45G G46C	0.131
G5A C6U U7A G8U C9A A45G G46U	0.0592
G5A C6U U7A G8U C9A A45U	0.132
G5A C6U U7A G8U C9A A45U G46A	0.0424
G5A C6U U7A G8U C9A A45U G46C	0.0684
G5A C6U U7A G8U C9A A45U G46U	0.0214
G5A C6U U7A G8U C9A A47C	0.133
G5A C6U U7A G8U C9A A47C G48A	0.0387
G5A C6U U7A G8U C9A A47C G48C	0.0967
G5A C6U U7A G8U C9A A47C G48U	0.0767
G5A C6U U7A G8U C9A A47G	0.0115
G5A C6U U7A G8U C9A A47G G48A	0.0214
G5A C6U U7A G8U C9A A47G G48C	0.0173
G5A C6U U7A G8U C9A A47G G48U	0.00228
G5A C6U U7A G8U C9A A47U	0.0348
G5A C6U U7A G8U C9A A47U G48A	0.0443
G5A C6U U7A G8U C9A A47U G48C	0.0371
G5A C6U U7A G8U C9A A47U G48U	0.0462

Variant	exon inclusion enrichment index
G5A C6U U7A G8U C9A C16A	0.0643
G5A C6U U7A G8U C9A C16A U17A	0.0573
G5A C6U U7A G8U C9A C16A U17C	0.0702
G5A C6U U7A G8U C9A C16A U17G	0.0322
G5A C6U U7A G8U C9A C16G	0.0112
G5A C6U U7A G8U C9A C16G U17A	0.0334
G5A C6U U7A G8U C9A C16G U17C	0.00521
G5A C6U U7A G8U C9A C16G U17G	0.00515
G5A C6U U7A G8U C9A C16U	0.0512
G5A C6U U7A G8U C9A C16U U17A	0.0252
G5A C6U U7A G8U C9A C16U U17C	0.0363
G5A C6U U7A G8U C9A C16U U17G	0.0217
G5A C6U U7A G8U C9A C18A	0.017
G5A C6U U7A G8U C9A C18A C19A	0.00553
G5A C6U U7A G8U C9A C18A C19G	0.00128
G5A C6U U7A G8U C9A C18A C19U	0.00112
G5A C6U U7A G8U C9A C18G	0.0618
G5A C6U U7A G8U C9A C18G C19A	0.0894
G5A C6U U7A G8U C9A C18G C19G	0.0648
G5A C6U U7A G8U C9A C18G C19U	0.00519
G5A C6U U7A G8U C9A C18U	0.0307
G5A C6U U7A G8U C9A C18U C19A	0.00119
G5A C6U U7A G8U C9A C18U C19G	0.0036
